The source of these data is patent US20140213531A1 (POLYPHOR, published 2014).

Common to all, as to assay: cell-based or functional assay
The target in assay [1] is T1, Elastase from human neutrophils (human, UniProt P08246 30-247, limits assumed).
T1 sequence (looked up): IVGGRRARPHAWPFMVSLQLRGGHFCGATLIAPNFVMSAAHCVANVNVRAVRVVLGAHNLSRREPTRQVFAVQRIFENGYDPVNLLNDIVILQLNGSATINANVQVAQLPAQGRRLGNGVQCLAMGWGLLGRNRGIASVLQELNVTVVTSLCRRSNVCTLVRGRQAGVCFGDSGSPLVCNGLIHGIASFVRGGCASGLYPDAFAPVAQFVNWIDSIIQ

Assay [2] concerns the target T2, CathepsinG, from human neutrophils (human, UniProt P08311 21-244).
T2 sequence (looked up): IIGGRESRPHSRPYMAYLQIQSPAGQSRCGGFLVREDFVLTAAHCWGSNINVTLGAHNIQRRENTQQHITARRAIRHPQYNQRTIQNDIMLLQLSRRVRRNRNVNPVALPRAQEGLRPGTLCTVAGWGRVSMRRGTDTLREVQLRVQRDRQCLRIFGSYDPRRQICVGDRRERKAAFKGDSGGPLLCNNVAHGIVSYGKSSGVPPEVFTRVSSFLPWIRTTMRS

The target of assay [3] is Trypsin, Iodination grade, from human pancreas (human, UniProt P07477 24-247).
For assay [4], the target named is T3, Chymase, from human skin (human, UniProt P23946 22-247).
T3 sequence (looked up): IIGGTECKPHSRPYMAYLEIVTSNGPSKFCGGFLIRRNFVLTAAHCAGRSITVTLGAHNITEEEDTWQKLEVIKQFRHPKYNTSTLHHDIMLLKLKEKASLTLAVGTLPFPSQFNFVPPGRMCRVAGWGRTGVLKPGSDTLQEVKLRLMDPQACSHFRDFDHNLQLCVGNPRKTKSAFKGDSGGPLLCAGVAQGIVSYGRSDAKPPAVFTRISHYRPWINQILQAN

Bridges are numbered along the chain shown (N, C = ends). [ ]: non-standard residue; d: D form. Nle = CCCC[C@H](N)C(=O)O; Abu = CC[C@H](N)C(=O)O

B1: Example 76 (peptide)
peptide: ICTASLPPQCY
HELM: PEPTIDE1{I.C.T.A.S.L.P.P.Q.C.Y.[dP].P}$PEPTIDE1,PEPTIDE1,2:R3-10:R3|PEPTIDE1,PEPTIDE1,1:R1-13:R2$$$V2.0
SMILES: CC[C@H](C)[C@@H]1NC(=O)[C@@H]2CCCN2C(=O)[C@H]2CCCN2C(=O)[C@H](Cc2ccc(O)cc2)NC(=O)[C@@H]2CSSC[C@H](NC1=O)C(=O)N[C@@H]([C@@H](C)O)C(=O)N[C@@H](C)C(=O)N[C@@H](CO)C(=O)N[C@@H](CC(C)C)C(=O)N1CCC[C@H]1C(=O)N1CCC[C@H]1C(=O)N[C@@H](CCC(N)=O)C(=O)N2
In the case of B1, the IC50 in assay [1] came to 71 nmol.

For cyclo(FCTKSDPPICS[dT]P) (disulfide 2-10) [Example 72], the IC50 in assay [2] came to 87 nmol.

Consider cyclo(FCTKSDPPICS[dP]L) (disulfide 2-10) [Example 51], for which the values for the IC50 in assay [1] and in assay [2] were > 100000 nmol and 91 nmol, respectively.

For the molecule cyclo(FCTKSDPPICS[dP]L) (disulfide 2-10) [Example 74], the % inhibition (as a rule, the percentage by which the read-out fell short of the control) at 100 µM in assay [3] worked out at 86%. Besides, the IC50 in assay [1] was > 100000 nmol; in assay [2], 91 nmol.

B2: Example 9 (peptide)
peptide: XCTKSDPPICS
HELM: PEPTIDE1{[Nc1ccc(C[C@H](N[*:1])C(=O)[*:2])cc1].C.T.K.S.D.P.P.I.C.S.[dP].P}$PEPTIDE1,PEPTIDE1,2:R3-10:R3|PEPTIDE1,PEPTIDE1,1:R1-13:R2$$$V2.0
SMILES: CC[C@H](C)[C@@H]1NC(=O)[C@@H]2CCCN2C(=O)[C@@H]2CCCN2C(=O)[C@H](CC(=O)O)NC(=O)[C@H](CO)NC(=O)[C@H](CCCCN)NC(=O)[C@H]([C@@H](C)O)NC(=O)[C@@H]2CSSC[C@H](NC1=O)C(=O)N[C@@H](CO)C(=O)N1CCC[C@@H]1C(=O)N1CCC[C@H]1C(=O)N[C@@H](Cc1ccc(N)cc1)C(=O)N2
In the case of B2, the “% inhibition at 100 µM” value in assay [3] is 88.1%; in assay [1] it was 4.1%. In addition, the IC50 in assay [2] was 105 nmol.

B3: Example 83 (peptide)
peptide: XCTASXPPQCY
HELM: PEPTIDE1{[Nle].C.T.A.S.[CC(C)CC[C@H](N[*:1])C(=O)[*:2]].P.P.Q.C.Y.[dP].P}$PEPTIDE1,PEPTIDE1,2:R3-10:R3|PEPTIDE1,PEPTIDE1,1:R1-13:R2$$$V2.0
SMILES: CCCC[C@@H]1NC(=O)[C@@H]2CCCN2C(=O)[C@H]2CCCN2C(=O)[C@H](Cc2ccc(O)cc2)NC(=O)[C@@H]2CSSC[C@H](NC1=O)C(=O)N[C@@H]([C@@H](C)O)C(=O)N[C@@H](C)C(=O)N[C@@H](CO)C(=O)N[C@@H](CCC(C)C)C(=O)N1CCC[C@H]1C(=O)N1CCC[C@H]1C(=O)N[C@@H](CCC(N)=O)C(=O)N2
Take B3: the IC50 in assay [1] turned out to be 43 nmol.

B4: Example 77 (peptide)
peptide: XCTTSIPPYCY
HELM: PEPTIDE1{[Nle].C.T.T.S.I.P.P.Y.C.Y.[dP].P}$PEPTIDE1,PEPTIDE1,2:R3-10:R3|PEPTIDE1,PEPTIDE1,1:R1-13:R2$$$V2.0
SMILES: CCCC[C@@H]1NC(=O)[C@@H]2CCCN2C(=O)[C@H]2CCCN2C(=O)[C@H](Cc2ccc(O)cc2)NC(=O)[C@@H]2CSSC[C@H](NC1=O)C(=O)N[C@@H]([C@@H](C)O)C(=O)N[C@@H]([C@@H](C)O)C(=O)N[C@@H](CO)C(=O)N[C@@H]([C@@H](C)CC)C(=O)N1CCC[C@H]1C(=O)N1CCC[C@H]1C(=O)N[C@@H](Cc1ccc(O)cc1)C(=O)N2
Take B4: in assay [1], the IC50 is 68 nmol.

B5: Example 79 (peptide)
peptide: XCTASXPPQCY
HELM: PEPTIDE1{[Nle].C.T.A.S.[Nle].P.P.Q.C.Y.[dP].P}$PEPTIDE1,PEPTIDE1,2:R3-10:R3|PEPTIDE1,PEPTIDE1,1:R1-13:R2$$$V2.0
SMILES: CCCC[C@@H]1NC(=O)[C@@H]2CCCN2C(=O)[C@H]2CCCN2C(=O)[C@H](Cc2ccc(O)cc2)NC(=O)[C@@H]2CSSC[C@H](NC1=O)C(=O)N[C@@H]([C@@H](C)O)C(=O)N[C@@H](C)C(=O)N[C@@H](CO)C(=O)N[C@@H](CCCC)C(=O)N1CCC[C@H]1C(=O)N1CCC[C@H]1C(=O)N[C@@H](CCC(N)=O)C(=O)N2
Molecule B5 returned an IC50 in assay [1] of 66 nmol.

B6: Example 53 (peptide)
peptide: FCTKSDPPXCS
HELM: PEPTIDE1{F.C.T.K.S.D.P.P.[Nle].C.S.[dP].P}$PEPTIDE1,PEPTIDE1,2:R3-10:R3|PEPTIDE1,PEPTIDE1,1:R1-13:R2$$$V2.0
SMILES: CCCC[C@@H]1NC(=O)[C@@H]2CCCN2C(=O)[C@@H]2CCCN2C(=O)[C@H](CC(=O)O)NC(=O)[C@H](CO)NC(=O)[C@H](CCCCN)NC(=O)[C@H]([C@@H](C)O)NC(=O)[C@@H]2CSSC[C@H](NC1=O)C(=O)N[C@@H](CO)C(=O)N1CCC[C@@H]1C(=O)N1CCC[C@H]1C(=O)N[C@@H](Cc1ccccc1)C(=O)N2
Take B6: the “% inhibition at 100 µM” value was determined as 95% in assay [3] and 12.7% in assay [4]. Besides, the values for the IC50 in assay [1] and in assay [2] were > 100000 nmol and 56 nmol, respectively.

B7: Example 10 (peptide)
peptide: XCTKSDPPICS
HELM: PEPTIDE1{[Nle].C.T.K.S.D.P.P.I.C.S.[dP].P}$PEPTIDE1,PEPTIDE1,2:R3-10:R3|PEPTIDE1,PEPTIDE1,1:R1-13:R2$$$V2.0
SMILES: CCCC[C@@H]1NC(=O)[C@@H]2CCCN2C(=O)[C@H]2CCCN2C(=O)[C@H](CO)NC(=O)[C@@H]2CSSC[C@H](NC1=O)C(=O)N[C@@H]([C@@H](C)O)C(=O)N[C@@H](CCCCN)C(=O)N[C@@H](CO)C(=O)N[C@@H](CC(=O)O)C(=O)N1CCC[C@H]1C(=O)N1CCC[C@H]1C(=O)N[C@@H]([C@@H](C)CC)C(=O)N2
With B7, the “% inhibition at 100 µM” value stood at 89.9% in assay [3], 9.4% in assay [4] and 0.3% in assay [1]. Also, the IC50 in assay [2] came out at 75 nmol.

B8: Example 25 (peptide)
peptide: FCTKXDPPICS
HELM: PEPTIDE1{F.C.T.K.[NC[C@H](N[*:1])C(=O)[*:2]].D.P.P.I.C.S.[dP].P}$PEPTIDE1,PEPTIDE1,2:R3-10:R3|PEPTIDE1,PEPTIDE1,1:R1-13:R2$$$V2.0
SMILES: CC[C@H](C)[C@@H]1NC(=O)[C@@H]2CCCN2C(=O)[C@@H]2CCCN2C(=O)[C@H](CC(=O)O)NC(=O)[C@H](CN)NC(=O)[C@H](CCCCN)NC(=O)[C@H]([C@@H](C)O)NC(=O)[C@@H]2CSSC[C@H](NC1=O)C(=O)N[C@@H](CO)C(=O)N1CCC[C@@H]1C(=O)N1CCC[C@H]1C(=O)N[C@@H](Cc1ccccc1)C(=O)N2
Turning to B8, the “% inhibition at 100 µM” value in assay [3] came to 89.3%; in assay [4] it was 10%; in assay [1], 3.2%. The molecule also had an IC50 in assay [2] of 102 nmol.

For the molecule cyclo([Nle]CT[Abu]SIPPQCY[dP]P) (disulfide 2-10) [Example 78], the IC50 in assay [1] turned out to be 29 nmol.

B9: Example 71 (peptide)
peptide: XCTKSDPPXCR
HELM: PEPTIDE1{[O=C([C@@H](N[*:1])C1CCCCC1)[*:2]].C.T.K.S.D.P.P.[Cha].C.R.[dP].P}$PEPTIDE1,PEPTIDE1,2:R3-10:R3|PEPTIDE1,PEPTIDE1,1:R1-13:R2$$$V2.0
SMILES: C[C@@H](O)[C@@H]1NC(=O)[C@@H]2CSSC[C@H](NC(=O)[C@H](CC3CCCCC3)NC(=O)[C@@H]3CCCN3C(=O)[C@@H]3CCCN3C(=O)[C@H](CC(=O)O)NC(=O)[C@H](CO)NC(=O)[C@H](CCCCN)NC1=O)C(=O)N[C@@H](CCCNC(=N)N)C(=O)N1CCC[C@@H]1C(=O)N1CCC[C@H]1C(=O)N[C@@H](C1CCCCC1)C(=O)N2
For B9, the IC50 in assay [2] came to 70 nmol.

B10: Example 80 (peptide)
peptide: XCTASXPPQCY
HELM: PEPTIDE1{[Nle].C.T.A.S.[CCCCCC[C@H](N[*:1])C(=O)[*:2]].P.P.Q.C.Y.[dP].P}$PEPTIDE1,PEPTIDE1,2:R3-10:R3|PEPTIDE1,PEPTIDE1,1:R1-13:R2$$$V2.0
SMILES: CCCCCC[C@@H]1NC(=O)[C@H](CO)NC(=O)[C@H](C)NC(=O)[C@H]([C@@H](C)O)NC(=O)[C@@H]2CSSC[C@H](NC(=O)[C@H](CCC(N)=O)NC(=O)[C@@H]3CCCN3C(=O)[C@@H]3CCCN3C1=O)C(=O)N[C@@H](Cc1ccc(O)cc1)C(=O)N1CCC[C@@H]1C(=O)N1CCC[C@H]1C(=O)N[C@@H](CCCC)C(=O)N2
Regarding B10, the IC50 in assay [1] was 35 nmol.
